Key:
[1] = tested on: ferritin heavy chain (FTH1); assay: Western blot assay of ferritin degradation (ferritinophagy) in HeLa cell lines; type: cell-based; settings: EGFP-fused constructs stably integrated in NCOA4Δ HeLa cells; 40 μM FAC 24 h then 50 μM DFO 24 h; quantitative Western blot FTH1/tubulin, triplicate
Text: Stably integrated NCOA4^383−522 cell lines were generated via retroviral transfection of the relevant NCOA4^383−522 construct in a CMV-enhancer–bearing pMRX plasmid (84573; Addgene) into NCOA4Δ HeLa cells (a gift from Prof. M. Poli, University of Brescia, Italy) ([Gryzik et al, 2021]). In this pMRX plasmid, EGFP was fused to the N terminus of NCOA4^383−522 and its mutants with a 13-residue GS linker. HeLa cells were transfected and selected as described previously ([Sena-Esteves & Gao, 2018]).
After 24-h, all media were aspirated and replaced with either DMEM or DMEM supplemented with 40 μM ferric ammonium citrate (FAC). After an additional 24 h, all media were aspirated and replaced with either DMEM or DMEM supplemented with 50 μM deferoxamine (DFO). After an additional 24-h incubation, cells were trypsinized (200 μl, 5 min, 37°C), pelleted via centrifugation at 100g for 1 min, resuspended in Dulbecco’s PBS (D8537; Sigma-Aldrich), and pelleted as above before undergoing flash freezing in liquid nitrogen and storage at −80°C.
Frozen cell pellets were resuspended in 100 μl 4X Laemmli buffer with Halt protease and phosphatase inhibitor (78440; Thermo Fisher Scientific) and lysed with a 29-gauge syringe. […] Ferritin levels were then measured by densitometry in FIJI ([Schindelin et al, 2012]) and normalized to tubulin intensity measured as above.

[2] = tested on: lysosomes (LAMP1); assay: Immunofluorescence colocalization of GFP-NCOA4^383−522 with lysosomes (LAMP1); type: cell-based; settings: GFP-fused constructs in NCOA4Δ HeLa cells, 50 μM DFO 24 h; anti-GFP and anti-LAMP1; area of overlap per nucleus and Manders' coefficient
Description: For colocalization assays, NCOA4^383−522 cell lines were seeded on glass coverslips in a 12-well cell culture plate in DMEM as above. After 24 h, media were aspirated and replaced with DMEM supplemented with 50 μM DFO, and cells were incubated for an additional 24 h. Cells were then fixed with 4% paraformaldehyde in PBS (150 mM NaCl, 2.7 mM KCl, 10 mM Na2HPO4, 1.8 mM KH2PO4, pH 8.0) for 15 min at RT, quenched with 100 mM glycine in PBS for 10 min, and washed three times with PBS. Cells were next permeabilized with 0.5% Triton X-100 in PBS for 10 min, washed once with PBS, and blocked for 30 min in 2% BSA in PBS. Slides were next incubated in anti-GFP mouse antibody (sc-9996; Santa Cruz) diluted 1:200, anti-LAMP1 rabbit antibody (9091T; Cell Signaling) diluted 1:200, and Hoechst stain (H3570; Invitrogen) diluted 1:1,000, in 2% BSA in PBS for 1 h. […]
All image analysis was conducted in FIJI ([Schindelin et al, 2012]). […] The overlapping regions were then measured, and the area per nucleus was recorded. […] For all images, threshold values were manually chosen for the pink and green channels, and Manders’ value, which calculates the fraction of the pink signal that overlaps green signal, was recorded.

B1: NCOA4^383-522: NCOA4 fragment of residues 383–522; biotinylated AviTag-His6-NCOA4-MBP in vitro, EGFP fusion in cells (protein)
chain: SMVTEDWLVQNHQDPCKVEEVCRANEPCTSFAECVCDENCEKEALYKWLLKKEGKDKNGMPVEPKPEPEKHKDSLNMWLCPRKEVIEQTKAPKAMTPSRIADSFQVIKNSPLSEWLIRPPYKEGSPKEVPGTEDRAGKQK
modifications: biotin on the AviTag (BirA co-expressed); left off: AviTag, N-terminal, kept | His6, N-terminal, kept | MBP, C-terminal, kept
notes: NCOA4 fragment of residues 383–522; biotinylated AviTag-His6-NCOA4-MBP in vitro, EGFP fusion in cells
[1]
  ferritin degradation upon iron chelation with DFO (in words): ferritin degradation was robust
[2]
  NCOA4:lysosome colocalization (in words): significant colocalization

Source: PMC12872393, “NCOA4 initiates ferritinophagy by avidly binding GATE16 using two short linear interaction motifs” (Life Science Alliance, 2026)
